In US10881612B2, “Cationic liposomes for cancer immunotherapy” (The Methodist Hospital, priority 2015, dated 2021):

Assays:
[1] = system: 4T1 orthotopic breast tumors; assay: Therapeutic efficacy study, intratumoral injection; assay type: in vivo, BALB/c mice; conditions: intratumoral injection once a week for two weeks
Procedure: Breast cancer tumors were established in BALB/c mice by intramammary injection of 1×10^5 4T1-luciferase cells. When tumors reached a median size of 100-200 mm^3, mice were administered intratumoral injections as follows: PBS control, Free MPL (6.25 μg), control liposomes (50 μL; 1 mg lipid); MPL liposomes (50 μL), and IL-12 (5 μg) with/without MPL liposomes. Tumor growth was monitored by caliper measurements three times per week and by luciferase expression measured weekly using the Xenogen IVIS-200 System (Perkin Elmer Inc., Waltham, Mass., USA) following intra-peritoneal injection of 75 mg/kg RediJect D-Luciferin (Perkin Elmer Inc.), 24-26 days after initiation of tumor growth, mice were sacrificed, blood was collected by retro-orbital bleeding, and tumor and spleen were collected for immunohistochemical, weight, and size analysis. Dual tumors were grown in naïve mice using the same experimental conditions with intratumoral injection of particles limited to a single tumor.
Breast cancer tumors were established in BALB/c mice by intramammary injection of 1×10^5 4T1-luciferase cells. When tumors reached a median size of 100-200 mm^3, mice were administered intratumoral injections as follows: PBS control. Free MPL (6.25 μg), control liposomes (50 μL; 1 mg lipid): MPL liposomes (50 μL), and IL-12 (5 μg) with/without MPL liposomes. […]

[2] = system: 4T1 tumors; assay: In vivo tumor cytotoxicity (H&E and TUNEL staining) after intratumoral injection; conditions: 24 hours after intratumoral injection
Procedure: (§1) The cytotoxicity of cationic liposomes to 4T1 breast cancer cells was evaluated by flow cytometry using propodium iodide (PI). Using a 24 well plate format, cells were treated with 4 μg control or MPL liposomes, or free MPL (250 ng) for 24 hours. Cells were released using trypsin and treated with PI according to manufacturer's protocol (Invitrogen). Samples were analyzed using a LSR II™ Flow Cytometer (BD Biosciences, Mountain View, Calif., USA) equipped with […] ™ software (2007). In vivo tumor cytotoxicity of cationic liposomes was evaluated in BALB/c mice bearing 200 mm^3 4T1 tumors 24 hours following intratumoral injection of liposomes (50 μL; 1 mg lipid). […]
(§2) The cytotoxicity of cationic liposomes to 4T1 breast cancer cells was evaluated by flow cytometry using propidium iodide (PI). […] Samples were analyzed using a LSR II® Flow Cytometer (BD Biosciences. Mountain View, Calif., USA) equipped with […] ™ software (2007). In vivo tumor cytotoxicity of cationic liposomes was evaluated in BALB/c mice bearing 200 mm^3 4T1 tumors 24 hr following intratumoral injection of liposomes (50 μL; 1 mg lipid). Excised tumors were embedded in paraffin, sectioned, and stained with hematoxylin/eosin, or analyzed for apoptosis using the DeadEnd® Fluorometric TUNEL System (Promega Corp., Madison. Wis., USA).

[3] = system: 4T1 breast cancer cells; assay: Cytotoxicity of cationic liposomes by propidium iodide flow cytometry; assay type: cell-based, mouse; conditions: 4T1 cells, 4 μg/mL liposomes or free MPL (250 ng), 24 hours, n=3
Procedure: as §1, §2

[4] = system: 4T1 tumors; assay: Immunofluorescence of tumor sections (cellular phenotype of tumor microenvironment); assay type: in vivo, BALB/c mice
Procedure: Tissues were quick frozen in OCT (Tissue-Tek) and stored at −80° C. Tissue sections (10 μm) were fixed with ice-cold acetone for 15 minutes at −20° C. and washed three times with IX PBS using trays followed by blocking with 5% fetal bovine serum in PBS. Fluorescence-labeled antibodies [e-flour 615 CD8 (clone 53-6.7; 1:50), e-flour 570 Ki-67 (clone solA15: 1:100; eBioscience, San Diego, Calif., USA); FITC F4/80 (MCA497A488; 1:100), Alexa Fluor 647 CD204 (MCA1322; 1:100, AbD Serotec, Raleigh N.C., USA); and 33D1 (1:100, BD Biosciences, San Jose. Calif.: 1:500 secondary anti-rat IgG Alexa Fluor® 546; Invitrogen) and iNOS (6/iNOS/NOS; 1:100 BD Biosciences, San Jose, Calif., USA; 1:500 anti-rabbit IgG-TRITC, Jackson Immunoresearch Labs, Inc. West Grove, Pa., USA)] were incubated with tissues overnight at 4° C. in the presence of 5% FBS. Slides were then washed three times with PBS and mounted with ProLong® Gold AntiFade with DAPI (Invitrogen). Images were taken using an A1 Nikon confocal microscope and the percent positive cells were determined by manual counting of four arbitrary regions in random samples.
Tissues were quick frozen in OCT (Tissue-Tek) and stored at −80° C. Tissue sections (10 μm) were fixed with ice-cold acetone for 15 min at −20° C. and washed three times with 1×PBS using trays followed by blocking with 5% fetal bovine serum in PBS. Fluorescently-labeled antibodies [eFluor® 615 CD8 (clone 53-6.7; 1:50), eFluor® 570 Ki-67 (clone solA15; 1:100; eBioscience, San Diego, Calif. USA); FITC F4/80 (MCA497A488; 1:100), Alexa-Fluor® 647 CD204 (MCA1322; 1:100, AbD Serotec, Raleigh N.C. USA); and 33D1 (1:100, BD Biosciences, San Jose, Calif.; 1:500 secondary anti-rat IgG Alexa-Fluor® 546: Invitrogen) and iNOS (6/iNOS/NOS; 1:100 BD Biosciences. San Jose. Calif., USA; 1:500 anti-rabbit IgG-TRITC. Jackson ImmunoResearch Laboratories. Inc., West Grove, Pa. USA)] were incubated with tissues overnight at 4° C. in the presence of 5% FBS. Slides were then washed three times with PBS and mounted with ProLong® Gold AntiFade® with DAPI (Invitrogen). Images were obtained using a confocal microscope (A1 Nikon), and the percent-positive cells were determined by manual counting of four arbitrary regions in random samples.

[5] = system: 4T1 tumor; assay: Immune phenotyping of tumor immunocytes by flow; assay type: in vivo, murine; conditions: 24 hours after treatment, preliminary
[6] = system: serum cytokines; assay: Multiplex bead ELISA of serum cytokines; assay type: in vivo, BALB/c mice; conditions: 5 hours after intratumoral injection
Procedure: Serum cytokines were analyzed 5 hours after intratumoral injection of liposomes using a mouse cytokine magnetic 10-plex panel kit (Invitrogen, Carlsbad, Calif., USA) for the Luminex® platform. Following retro-orbital eye bleed, plasma was collected by centrifugation at 1500 g for 10 minutes at 4° C. and stored at −80° C. Plates were prepared using 25 μL/well of the antibody-bound head. After 2 washes, 50 μL serum and 50 μL assay diluent (or 100 μL standard) were added and plates were incubated at room temperature for 2 hours on an orbital shaker. After two washes, 100 μL of biotinylated detector antibody was added to the heads and they were incubated for an additional hour, followed by two more washes and the addition of 100 μL streptavidin-RPE for 30 minutes. After a final two washes, beads were suspended in 125 μL wash solution and inserted into the XY platform of a Luminex MAGPIX Instrument (EMD Millipore, Billerica, Mass. USA). The assay protocol was designed using xPONENT software and samples were run at 100 events/bead region.
Multiplex Bead ELISA. Serum cytokines were analyzed 5 hr after intratumoral injection of liposomes using a mouse cytokine magnetic 10-plex panel kit (Invitrogen, Carlsbad, Calif. USA) for the Luminex® platform. Following retro-orbital eye bleed, plasma was collected by centrifugation at 1500×g for 10 min at 4° C. and stored at −80° C. […]

[7] = system: 4T1 tumor; assay: V-sense 19F MRI / confocal tracking of macrophage infiltration into tumor; assay type: in vivo, mice; conditions: after IL-12 intratumoral injection, tumors extracted 24 hours post imaging
From the text: Macrophage accumulation has been documented to contribute to cancer progression through suppression of the immune response and promotion of tumor vascularization (Mielgo et al., 2013). V-sense is a perfluorocarbon emulsion that is taken up by monocytes and macrophages, allowing for in-vivo detection through ^19F MRI. Ahrens, et al. (2011) successfully quantified V-sense in inflamed tissues of the central nervous system in an ex-vivo model of allergic encephalomyelitis, which they correlated with immunohistochemistry to confirm co-localization of V-sense emulsion droplets and macrophages. Hitchens et al. (2011) detected perfluorocarbon-labeled macrophages in a model of cardiac allograft rejection, which was confirmed via immunohistochemistry and histology. V-sense was used to study the impact of IL-12 on macrophage infiltration into the tumor (FIG. 8). […] Confocal images in FIG. 8B show V-sense (red) uptake by Celltracker™ Green RAW cells.

monophosphoryl lipid A [free MPL]
tumor growth (caliper measurements) [1]: did not slow tumor growth | cell death in tumor (TUNEL staining) [2]: Minimal cell death | cell death (propidium iodide uptake) [3]: 16%

B1: IL-12: Recombinant mouse IL-12 purchased from R&D Systems (protein, UniProt P43431 23-215; P43432 23-335, looked up)
Interleukin-12 subunit alpha: RVIPVSGPARCLSQSRNLLKTTDDMVKTAREKLKHYSCTAEDIDHEDITRDQTSTLKTCLPLELHKNESCLATRETSSTTRGSCLPPQKTSLMMTLCLGSIYEDLKMYQTEFQAINAALQNHNHQQIILDKGMLVAIDELMQSLNHNGETLRQKPPVGEADPYRVKMKLCILLHAFSTRVVTINRVMGYLSSA
Interleukin-12 subunit beta: MWELEKDVYVVEVDWTPDAPGETVNLTCDTPEEDDITWTSDQRHGVIGSGKTLTITVKEFLDAGQYTCHKGGETLSHSHLLLHKKENGIWSTEILKNFKNKTFLKCEAPNYSGRFTCSWLVQRNMDLKFNIKSSSSSPDSRAVTCGMASLSAEKVTLDQRDYEKYSVSCQEDVTCPTAEETLPIELALEARQQNKYENYSTSFFIRDIIKPDPPKNLQMKPLKNSQVEVSWEYPDSWSTPHSYFSLKFFVRIQRKKEKMKETEEGCNQKGAFLVEKTSTEVQCKGGNVCVQAQDRYYNSSCSKWACVPCRVRS
CD8+ (cytolytic) T cells in the tumor (change) ([4]; mouse, in vivo): increased | F4/80+ macrophages in the tumor (change) ([4]; mouse, in vivo): increased | iNOS in tumors (change) ([4]; mouse, in vivo): enhancing production | increase in iNOS (nitric oxide synthase) expression in the tumor above basal levels ([4]; mouse, in vivo): 3 fold | 33D1+ dendritic cells in the tumor (change) ([4]; tumor sections, immunofluorescence): increased | CD4+ T cells in the tumor [5]: increases | CD8+ T cells in the tumor [5]: increases | MDSC in the tumor [5]: decreases | serum IFN-γ [6]: increase | V-sense signal distribution in tumor (macrophage infiltration) [7]: strong penetration of V-sense signal into tumor tissue
